Experimental data from ChEMBL document CHEMBL1255339, “Biochemical characterization of SHV-55, an extended-spectrum class A beta-lactamase from Klebsiella pneumoniae” (Antimicrob Agents Chemother, 2008).

Tests used:
[1] = substrate: CC1(C)S[C@@H]2[C@H](NC(=O)Cc3ccccc3)C(=O)N2[C@H]1C(=O)O; test: (§1) Activity of Klebsiella pneumoniae Beta-Lactamase SHV-1
[2] = substrate: CC1(C)S[C@@H]2[C@H](NC(=O)[C@H](C(=O)O)c3ccsc3)C(=O)N2[C@H]1C(=O)O; test: as §1
[3] = substrate: CO/N=C(\C(=O)N[C@@H]1C(=O)N2C(C(=O)O)=C(COC(N)=O)CS[C@H]12)c1ccco1; test: as §1
[4] = substrate: C[C@H]1[C@H](NC(=O)/C(=N\OC(C)(C)C(=O)O)c2csc(N)n2)C(=O)N1S(=O)(=O)O; test: as §1
[5] = substrate: CO/N=C(\C(=O)N[C@@H]1C(=O)N2C(C(=O)[O-])=C(C[N+]3(C)CCCC3)CS[C@H]12)c1csc(N)n1; test: as §1
[6] = substrate: CC1(C)S[C@@H]2[C@H](NC(=O)Cc3ccccc3)C(=O)N2[C@H]1C(=O)O; test: (§2) Activity of Klebsiella pneumoniae Beta-Lactamase SHV-55
[7] = substrate: CCN1CCN(C(=O)N[C@@H](C(=O)N[C@@H]2C(=O)N3[C@@H]2SC(C)(C)[C@@H]3C(=O)O)c2ccccc2)C(=O)C1=O; test: as §2
[8] = substrate: CC1(C)S[C@@H]2[C@H](NC(=O)[C@H](C(=O)O)c3ccsc3)C(=O)N2[C@H]1C(=O)O; test: as §2
[9] = substrate: CO/N=C(\C(=O)N[C@@H]1C(=O)N2C(C(=O)O)=C(COC(N)=O)CS[C@H]12)c1ccco1; test: as §2
[10] = substrate: C[C@H]1[C@H](NC(=O)/C(=N\OC(C)(C)C(=O)O)c2csc(N)n2)C(=O)N1S(=O)(=O)O; test: as §2
[11] = substrate: CO/N=C(\C(=O)N[C@@H]1C(=O)N2C(C(=O)[O-])=C(C[N+]3(C)CCCC3)CS[C@H]12)c1csc(N)n1; test: as §2
[12] = substrate: CC1(C)S[C@@H]2[C@H](NC(=O)Cc3ccccc3)C(=O)N2[C@H]1C(=O)O; test: (§3) Ratio of Kcat to Km for Klebsiella pneumoniae Beta-Lactamase SHV-55
[13] = substrate: CCN1CCN(C(=O)N[C@@H](C(=O)N[C@@H]2C(=O)N3[C@@H]2SC(C)(C)[C@@H]3C(=O)O)c2ccccc2)C(=O)C1=O; test: as §3
[14] = substrate: CC1(C)S[C@@H]2[C@H](NC(=O)[C@H](C(=O)O)c3ccsc3)C(=O)N2[C@H]1C(=O)O; test: as §3
[15] = substrate: CO/N=C(\C(=O)N[C@@H]1C(=O)N2C(C(=O)O)=C(COC(N)=O)CS[C@H]12)c1ccco1; test: as §3
[16] = substrate: CO/N=C(\C(=O)N[C@@H]1C(=O)N2C(C(=O)[O-])=C(C[N+]3(C)CCCC3)CS[C@H]12)c1csc(N)n1; test: as §3

B1: Beta-lactamase SHV-1 (Klebsiella pneumoniae), P0AD64 (protein)
chain: MRYIRLCIISLLATLPLAVHASPQPLEQIKLSESQLSGRVGMIEMDLASGRTLTAWRADERFPMMSTFKVVLCGAVLARVDAGDEQLERKIHYRQQDLVDYSPVSEKHLADGMTVGELCAAAITMSDNSAANLLLATVGGPAGLTAFLRQIGDNVTRLDRWETELNEALPGDARDTTTPASMAATLRKLLTSQRLSARSQRQLLQWMVDDRVAGPLIRSVLPAGWFIADKTGAGERGARGIVALLGPNNKAERIVVIYLRDTPASMAERNQQIAGIGAALIEHWQR
- Km [1]: 23 µM
- kcat [2]: 220 s⁻¹
- Km [3]: 80 µM
- kcat [3]: < 0.1 s⁻¹
- kcat [4]: < 0.1 s⁻¹
- Km [5]: 149 µM
- kcat [5]: < 0.1 s⁻¹

B2: Beta-lactamase SHV-55 (Klebsiella pneumoniae), Q4TVR4 (protein)
chain: MRFIRLCIISLLATLPLAVHASPQPLEQIKLSESQLSGRVGMIEMDLASGRTLTAWRADERFPMMSTFKVVLCGAVLARVDAGDEQLERKIHYRQQDLVDYSPVSEKHLADGMTVGELCAAAITMSDNSAANLLLATVGGPAGLTAFLRQIGDNVTRLDRWETELNEALPGDARDTTTPASMAATLRKLLTSQRLSARSQRQLLQWMVDDRVAGPLIRSVLPAGWFIADKTGASKRGARGIVALLGPNNKAERIVVIYLRDTPASMAERNQQIAGIGAALIEHWQR
- Km [6]: 5 µM
- Km [7]: 8 µM
- kcat [7]: 27 s⁻¹
- Km [8]: 6 µM
- kcat [8]: 8 s⁻¹
- kcat [9]: 7 s⁻¹
- Km [10]: 5 µM
- kcat [10]: < 0.1 s⁻¹
- Km [11]: 149 µM
- kcat [11]: 30 s⁻¹
- kcat/Km [12]: 5.3e+06 M⁻¹ s⁻¹
- kcat/Km [13]: 3.7e+06 M⁻¹ s⁻¹
- kcat/Km [14]: 1.5e+06 M⁻¹ s⁻¹
- kcat/Km [15]: 300000 M⁻¹ s⁻¹
- kcat/Km [16]: 200000 M⁻¹ s⁻¹
